Experimental data taken from publication PMC12748987.

Assays:
[1] = target: GIRK2 homotetrameric channel (mouse GIRK2A) (mouse)
[2] = target: GIRK2 homotetrameric channel (mouse GIRK2A) (mouse); remark: listed apart in the source
[3] = target: GIRK1/2 heterotetrameric channel (GIRK1 with GIRK2) (not stated | mouse) (UniProt P63251)
[4] = target: GIRK1/2HA heterotetrameric channel (GIRK1 with GIRK2HA) (not stated | mouse) (UniProt P63251)
[5] = target: GIRK2HA homotetrameric channel (HA-tagged GIRK2) (mouse)
[6] = target: GIRK1/2 heterotetrameric channel (GIRK1 with GIRK2) (not stated | mouse) (UniProt P63251); remark: listed apart in the source

Row | Substance | Kd, WTM model fit with fixed µ = 0.3 of single-channel Po against Gβ·YFPGγ surface density [1] | Kd, WTM model fit with fixed µ = 0.3 of whole-cell currents of GIRK2 or GIRK2HA against Gβ·YFPGγ surface density (mean of experiments) [2] | Kd, WTM model fit with fixed µ = 0.44 of whole-cell currents of GIRK2 or GIRK2HA against Gβ·YFPGγ surface density (mean of experiments) [2] | Kd, WTM model fit (µ = 0.3) of whole-cell currents against Gβ·YFPGγ surface density, mean of all experiments [3] | Kd, WTM model fit (µ = 0.3) of whole-cell currents against Gβ·YFPGγ surface density in individual oocytes (Fig. 4b, experiment #4) [4] | Kd, WTM model fit (µ = 0.3) of whole-cell currents against Gβ·YFPGγ surface density in individual oocytes (Fig. 4b, experiment #4) [5] | time constant of the single-exponential decay of channel activity (NPo) after excision of the patch into Gβγ-free bath solution with ATP and Na+ [6]
1 | Gβ·YFPGγ (Gβ1 coexpressed with N-terminally YFP-labeled Gγ2) (from UniProt P62873 1-340; P59768 1-71) (complex) | 17.3 µM | 31 µM | 11 µM | 5.5 µM | 9 µM | 45 µM | 
2 | Gβγ (Gβ1γ2) coexpressed in Xenopus oocytes (from UniProt P62873 1-340; P59768 1-71) (complex) |  |  |  |  |  |  | > 2 min
